The text below walks through data of article PMC4577212, “X-Ray Structure and Mutagenesis Studies of the N-Isopropylammelide Isopropylaminohydrolase, AtzC” (PLoS ONE, 2015).

Substrate in this data set: Nc1nc(O)nc(O)n1
Kind of data set: purified protein. The conditions noted are these: 200 mM sodium phosphate pH 7.5, glycerol, 301 K, 28.0 °C.

B1: AtzC (N-isopropylammelide isopropylaminohydrolase) (Pseudomonas sp. ADP) (protein)
chain: MSKDFDLIIRNAYLSEKDSVYDIGIVGDRIIKIEAKIEGTVKDEIDAKGNLVSPGFVDAHTHMDKSFTSTGERLPKFWSRPYTRDAAIEDGLKYYKNATHEEIKRHVIEHAHMQVLHGTLYTRTHVDVDSVAKTKAVEAVLEAKEELKDLIDIQVVAFAQSGFFVDLESESLIRKSLDMGCDLVGGVDPATRENNVEGSLDLCFKLAKEYDVDIDYHIHDIGTVGVYSINRLAQKTIENGYKGRVTTSHAWCFADAPSEWLDEAIPLYKDSGMKFVTCFSSTPPTMPVIKLLEAGINLGCASDNIRDFWVPFGNGDMVQGALIETQRLELKTNRDLGLIWKMITSEGARVLGIEKNYGIEVGKKADLVVLNSLSPQWAIIDQAKRLCVIKNGRIIVKDEVIVA
The Km is the substrate concentration at which the rate is half of its maximum. One may read the kcat as the maximal rate divided by the concentration of active sites. One may read the kcat/Km as the turnover number divided by the Michaelis constant. As for B1, the Michaelis-Menten constant (Km) came to 3.1 ± 0.2 mM, the kcat was 26.2 ± 1.8 s⁻¹ and the kcat/Km is 8500 M⁻¹ s⁻¹.
